Laboratory results as given in the DeepSol protein solubility set.

Assay: soluble on expression in E. coli; label from the status in PepcDB or PDB records

Sequence | soluble on expression in E. coli
MTKQQKGFVTGQPTGALNLSDILDSEELGEYHLMSAAIITGNTVDFSGLGAGPDDPFEIASITKIFTGELLRLQIERGEITESTAVGDVLGERVADSLIRDITVEELANHTSGLPRLGNVGLRPFMATFFDKNPYKDLSADRVISISTTSKLNSRGEFHYSNLGFALLGQVLARNAGLTFDQLLDRDLLAPLNLNNTKLMTPESLAQDAPQGFSTPGKQVEAWEMDGFLPAAGLRSTARDMAVFCQYLFTKGPAPFTWQSLESAPEIVWHNGESFGYSSVLFFNTATTTAIFVAADVATSVFPIGHELLMANSTRQESKLEHHHHHH | not soluble
MTKSVDTLLIPGPIILSGAVQKALDVPSLGHTSPEFVSIFQRVLKNTRAVFKSAAASKSQPFVLAGSGTLGWDIFASNFILSKAPNKNVLVVSTGTFSDRFADCLRSYGAQVDVVRPLKIGESVPLELITEKLSQNSYGAVTVTHVDTSTAVLSDLKAISQAIKQTSPETFFVVDAVCSIGCEEFEFDEWGVDFALTASQKAIGAPAGLSISLCSSRFMDYALNDSKNGHVHGYFSSLRRWTPIMENYEAGKGAYFATPPVQLINSLDVALKEILEEGLHKRWDLHREMSDWFKDSLVNGLQLTSVSRYPSNMSAHGLTAVYVADPPDVIAFLKSHGVVIAGGIHKDIGPKYIRIGHMGVTACNKNLPYMKNCFDLIKLALQRKK | soluble
MTKSYDVWWQKGQESDDDMARDHQEAWERTIEMLDTSDIKGKTILDVGCNQGGFLRKLYDTTPFKEGVGIDLARLSLEKAETLKGERPLTYYLTDKPQETNRTFDTAVSTSVLYLIEDIPQHAQDLKEVLKPGGVYYASFADLTNNPSRQFMDDTINQYGATPSQNHSLKHIVDSFVDAGFEVAVMKEPVPDVIDLTHYSDFYLSPNDYLQTLYEESFLIKASVKEGIGKLEHHHHHH | soluble
MTLAEAADAINFGLAGRVVLVTGGVRGVGAGISSVFAEQGATVITCARRAVDGQPYEFHRCDIRDEDSVKRLVGEIGERHGRLDMLVNNAGGSPYALAAEATHNFHRKIVELNVLAPLLVSQHANVLMQAQPNGGSIVNICSVSGRRPTPGTAAYGAAKAGLENLTTTLAVEWAPKVRVNAVVVGMVETERSELFYGDAESIARVAATVPLGRLARPADIGWAAAFLASDAASYISGATLEVHGGGEPPPYLGASSANK | soluble
MTLDHQIINPTLKWSQPAVPSGGPLVQHAHTTLDSDAGLTENPLTKLLAIGKEDDNAQWHLSGSILDVYSGEQGISPINMGLTSASCPSSLPMKREITETDTRALAKERQKKDNHNLIERRRRYNINYRIKELGTLIPKSNDPDMRWNKGTILKASVEYIKWLQKEQQRARELEHRQKKLEQANRRLLLRIQVFIRM | not soluble
MTLDLPELPFPLRPYGPDGRWSYADGVLTGVAGSRQDRFVPPTGESLESVSDAPRLLGAPDGDFQLIARVSVGFRGAFDAGVLYVHVGERAWAKLCLEYSPDVPTVCTVVTRGHSDDCNSFTVEGDSVWFRVSRTGRAFAFHASLDGERWTFVRLFTLGDEEETGSALVGFLAQAPTGEGCTVTYDHLEFRPAWPADLRDGSLEHHHHHH | not soluble
MTLKELYAETRSHMQKSLEVLEHNLAGLRTGRANPALLLHLKVEYYGAHVPLNQIATVTAPDPRTLVVQSWDQNALKAIEKAIRDSDLGLNPSNKGDALYINIPPLTEERRKDLVRAVRQYAEEGRVAIRNIRREALDKLKKLAKELHLSEDETKRAEAEIQKITDEFIAKADQLAEKKEQEILG | soluble
MTLLNLMIMQDYGISVCLTLTPYLQHELFSAMKSYFSKYILPVSLFTLPLSLSPSVSAFTLPEAWRAAQQHSADFQASHYQRDAVRARQQQAKAAFLPHVSANASYQRQPPSISSTRETQGWSVQVGQTLFDAAKFAQYRQSRFDTQAAEQRFDAAREELLLKVAESYFNVLLSRDTVAAHAAEKEAYAQQVRQAQALFNKGAATALDIHEAKAGYDNALAQEIAVLAEKQTYENQLNDYTDLDSKQIEAIDTANLLARYLPKLERYSLDEWQRIALSNNHEYRMQQLALQSSGQALRAAQNSRYPTVSAHVGYQNNLYTSSAQNNDYHYRGKGMSVGVQLNLPLYTGGELSGKIHEAEAQYGAAEAQLTATERHIKLAVRQAYTESGAARYQIMAQERVLESSRLKLKSTETGQQYGIRNRLEVIRARQEVAQAEQKLAQARYKFMLAYLRLVKESGLGLETVFAE | not soluble
MTLPKIGKPATRALNSQGIYTLEAVSQYTKSSLMEMHGVGPKAISILEQALFQHQLHFKTEVQSSLPFKLTGDVSCNHAPKRQQMIDFIVATAALDIELLRSLVTTEFIWSVPGHFDIYGPQILIQELSNYYNQVASLNIHSNITHGCLGSMHGIEILKTGKEIHFAHFFEFENHKKDAKLSKVTSYIVVA | not soluble
MTLSFTARWRDELPATYTALLPTPLKNARLIWYNDELAQQLAIPASLFDATNGAGVWGGETLLPGMSPVAQVYSGHQFGVWAGQLGDGRGILLGEQLLADGSTLDWHLKGAGLTPYSRMGDGRAVLRSTIRESLASEAMHYLGIPTTRALSIVTSDTPVQRETQETGAMLMRLAQSHMRFGHFEHFYYRREPEKVQQLADFAIRHYWPQWQDVAEKYALWFEEVAARTGRLIAEWQTVGFAHGVMNTDNMSILGLTIDYGPFGFLDDYDPGFIGNHSDHQGRYRFDNQPSVALWNLQRLAQTLTPFIEIDALNRALDRYQDALLTHYGQRMRQKLGFFTEQKDDNVLLNELFSLMAREGSDYTRTFRMLSHTEQQSASSPLRDTFIDRAAFDAWFDRYRARLRTEAVDDALRQQQMQRVNPAIVLRNWLAQRAIDAAEQGDMAELHRLHEVLRQPFTDRDDDYASRPPEWGKRLEVSCSSMAGDPLEHHHHHH | not soluble
MTLSSAGGSRSHRHNGGHSERDVEIRILKDKVRSLTKEKISLQKELEYYKNEITKLLSPPYIEAVVLEVIDDNRVVVKSSTGPNLIVNVAAGVDARSLKPGAIVALNNRGSTIVDVLPGRYDPLVKAMEVEERPKVFFKDVGGLEEQIREIYEAVVLPIKNPHLFRELGIDPPKGVLLHGPPGTGKTLLAKAVAGETEATFIRVVGSELVNKFIGEGARLVREIFRLAREKAPSILFIDEIDAIASKRVDIGTSGDREVQRTMLQLLAELDGFDPLDNVKVIAATNRLDLIDPAVLRPGRFDRIIEVPLPSLRGRLEILGIHTRKAKMAPDVDLEAIAKLTEGFSGADLKAVVVEAGYNAIRRGSRVITMDDMIKAVEKVKAALDKRGGGDPFIRAQQKSGDDTIATVI | soluble
MTLYPFPFTTKKQDAESMVDLFSLIKDYLVDQEDGIRHLITWFLNLVMEEEALLQVGAQRYERTDSRKASRNGYKPRTLLTKYGELELLKPQFREFPFETQVFEKYSRVEQAILSAVAESYLQGVSTRRVDKVMTALGVEGISASSVSRITKELDEKVSEFLSKPIEHEIPYLFIDATYLKVRDGLHYENKALFIVSGVRDDGFREILGARLADSEDSLFWQDLFEDLKERGLRGVKLIVSDGHKGIQKAVRESFIGSSWQMCHVHLIRQALKKVQKKKQKEVADKIKEALVDRHKYNDLIRELDKMEYKSAADTLENFQYDVMNYMQFPQSHWRKIRTTNMMERTNKEIKRRTKVVGAFPNQESVLRLVVSILIDINEDWITGNRYIVMEQ | not soluble
MTMEALLTPNNNNVPTSPVQTTYTSTQRYCSAPNVDIGESKTNLIINYLPQGMTQEEVRSLFTSIGEIESCKLVRDKVTGQSLGYGFVNYVREEDALRAVSSFNGLRLQNKTIKVSYARPSNDQIKGSNLYVSGIPKSMTLHELESIFRPFGQIITSRILSDNVTGLSKGVGFVRFDKKDEADVAIKTLNGSIPSGCSEQITVKFANNPASNNPKGLLSDLEAVQQAATTLVPLSTILGAPTLRATAGGIGPMHHAPITSKYRYSPMGAITAVSQPTATLPADYLTTSALLQMSQLNALAGLNPFATATAVPDFTASLIAHQQQQHAVAQQHAAQTASPPATNGQVAGLAAHAQLSALSASVAATLPPSDTAGYCLFVYNLSSDTDDTLLWQLFSQFGAIVNVKILRDLTQQCKGYAFVSMSNYTEAYNAMLSLNGTNLAGKTLQVVFKSSTPYRA | not soluble
MTMKCFLVILPLLVLYWIVSNRKRSGPLTNPHYKECLRKEWYTSPNVSSTEDFGSSYQISFADVQKTFKWLYLPEIDDPEIILTVMTRVDALARRNVLRKTWMTQRNRIKSIFVIGLGGDVDQKTKELVMSEAALYGDMVVTNIEDSFSKVAFKMLSMLLYGFSKVPSAKFIGKVDDDVLFYPNVLLSYMDNNTDTIHPQGSRMYGHITETRFITAGIPTGAECCEKFDSDSKCANYVTFLGGSFLMFTRQAVEGVLMASKHRKFHRIDDTMVTGYLADDVGAQRVNMTMMFMGYEPTKEPILFSSHIPLKDHEYLEQYRIQMADFKEQRLFTKYIGE | not soluble
MTMMTATQALSVNPATGQTLAAMPWANAQEIEHALSLAASGFKKWKMTSVAQRAQTLRDIGQALRAHAEEMAQCITREMGKPIKQARAEVTKSAALCDWYAEHGPAMLNPEPTLVENQQAVIEYRPLGVILAIMPWNFPLWQVLRGAVPILLAGNSYLLKHAPNVTGCAQMIARILAEAGTPAGVYGWVNANNEGVSQMINDPRIAAVTVTGSVRAGAAIGAQAGAALKKCVLELGGSDPFIVLNDADLELAVKAAVAGRYQNTGQVCAAAKRFIVEEGIAQAFTDRFVAAAAALKMGDPLVEENDLGPMARFDLRDELHQQVQASVAEGARLLLGGEKIAGEGNYYAATVLADVTPDMTAFRQELFGPVAAITVAKDAAHALALANDSEFGLSATIFTADDTLAAEMAARLECGGVFINGYSASDARVAFGGVKKSGFGRELSHFGLHEFCNVQTVWKNRV | soluble
MTMSTILFDDIRPYCDQEAPAVIERLLSSAEYRYVFGKMMPDVKPQEFEQMMLRCKSTGEFKHIFGYTAVKAVSEKTTFSLSLSGRSRIPDNGAYIFISNHRDIVLDSAFLNLLLAEIDYNMPQIAIGDNLLVKPWIEDFVRLNGSFIVRRGINMRELIAQSQRLSAYIRHTITQTKDSIWIAQREGRAKDADDRTQSSVLKMLAMSGEDGGIKSLLNLNIVPLSLSYEYDPCDYLKAREMLSKQRDPLYKKPVGEDLLNMQTGIFGYKGRVHFAIGTPLRELAESIPADAPHARQFTEAGKLIDAEIHRRYRLYPGNYVAWDLLDGCDHAGSHYSKEEKETFVNYLSAQIAKVEMQDKDEEELKRLILIMYANPARAYYAAQDPTNV | not soluble
MTNDLIQLIDSLMVNIPAGEVVLRDDRIKKEWLVQIQPFLLAKYAVTMELYDAITNSTLNNFDKNHKPVVNISWNDAIAFCNVLSKKAGLKEYYSISDGGQIVKCNLDSNGYRLPSEAEWQYACKASTTGYTYGKLHDIAWYNENSNGEIHDVGQKEPNAWGLYDMLGNVWEWCYDLYDETVYGSYRIFRGGSWAETARGCGATCRRRSHPTFHIDDLGFRLARSILEHHHHHH | soluble
MTNDTNITNDKDINANIAHDDHFNDSIVNEVILEDMKKNRIDHMKYLPDMEVLDSDIMDRVVAEMDAYDYDQYTAADVRAALSHEYRTLEDFKALLSPAAQPFIEEIAQAAQLETRKHFGNSVCMFTPLYISNYCENYCIYCGFNCHNKINRAKLNASEIEKEMAAIAKTGLQEILILTGESKKMSDVEYIGEACKIARKYFKVIGLEVYPMNSDEYAYLHECGADYVTVFQETYNSDKYETLHLAGHKRIFPYRVNAQERALKGGMRGVGFAALLGLDDFRKDALATGYHAYLLQKKYPRAEIAFSCPRLCPIINNDRINPKDVHETQLLQVVCAYRLFMPFASITISTREVARVRDNLVNIAATKISAGVSTGIGSHVDDIEDKGDDQFEISDGRSVDEVFNALLDNGLQPVMSDYIYV | not soluble
MTNIERLERCADIMRRRWIYDPEAGLLFSRETKDVIKGSMTNKGHLVVTVHEGKFKVTLTYQKACYVYTYGAYDETLYEVHHVNLNKQDNRIKNIRLMPKEKHRRIHKNVRKLIRLGHTQWLQPQLIEQSL | not soluble
